The supplement of paper PMC7125110
± gives the standard error. Variants at the floor of the assay were thinned out.

B1: glmS ribozyme (parent)
chain: AUAAAAGCGCCAGAACUACAGAAAUGUAGUUGACGAGGAGGAGGUUUAUCGAAUUUUCGGCGGAUGCCUCCAAA

Variants of: B1
Experiment: self-cleavage kobs at 2500 uM GlcN6P; higher = faster cleavage; RNA array
Conditions: with glucosamine-6-phosphate
How it was run: (§1)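 Tiles bearing barcoded ribozyme variants, transcribed in situ by E. coli RNA polymerase on sequenced MiSeq chips, were imaged over ~14 h at 37 °C using a hybridised Cy3 probe. Glucosamine-6-phosphate was supplied at 40 μM to 10 mM in HEPES/KCl/Mg(OAc)2 buffer. kobs came from one- or two-exponential decay fits to normalised per-tile medians, and weighted Michaelis–Menten fits then provided kcat and KM.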

| Variant | self-cleavage kobs at 2500 uM GlcN6P [s⁻¹] |
| --- | --- |
| A12C A52U C67U | 0.000185 ± 4.2e-05 |
| A15U U56G C70U | 0.000554 ± 0.00014 |
| C16G A42G A64U G66A C68A | < 1e-05 |
| A12U U31A C50G C61U | 6.19e-05 ± 2.1e-05 |
| A15G U31A A53G | 0.01 ± 0.0031 |
| A12U G37U G38A | < 1e-05 |
| A12G A52G G60C U65G | < 1e-05 |
| A14C U45G C71A | 4.43e-05 ± 1.3e-05 |
| A15U C16G A33U U49C | < 1e-05 |
| G13C A14C G35C | < 1e-05 |
| C11U U54C G66U | 9.68e-05 ± 3.4e-05 |
| A15C G51A C70G | 6.1e-05 ± 2.9e-05 |
| A15C U30A A33C G41U C50U C68A C70G | < 1e-05 |
| A14U A48U U54G G60C U69A C71U | 4.74e-05 ± 1.9e-05 |
| A15G G41U U56G C71G | 8.85e-05 ± 2e-05 |
| A14C A48G C70U | 5.88e-05 ± 2.6e-05 |
| A12U A64G C67G | 7.12e-05 ± 2.2e-05 |
| A12U G44C C61G | < 1e-05 |
| A15U G44C A64G | < 1e-05 |
| A12G U45G G60U | < 1e-05 |
| A15U G29U U55A | 0.00225 ± 0.00062 |

| Variant | self-cleavage kobs at 2500 uM GlcN6P [s⁻¹] |
| --- | --- |
| A12C U31A U47C C67U | 5.13e-05 ± 2.1e-05 |
| A14U G32U C71A | 4.64e-05 ± 2e-05 |
| A15U U54C U65A | 0.000123 ± 2.8e-05 |
| A14G G44U U56A | 0.000881 ± 0.00031 |
| G13C A33C G63A A64C | < 1e-05 |
| G13U A36C A42G C58U | < 1e-05 |
| A12U A14U A33C C50U | < 1e-05 |
| A15U G44A A48C U56A C70A | < 1e-05 |
| C16U G41C G44C G59C | < 1e-05 |
| A15G G37C U57G C67U | < 1e-05 |
| A12C A15U G43C G51A | < 1e-05 |
| A12G A33C G37C G40C | < 1e-05 |
| C11U G40U A42U G44A | < 1e-05 |
| A12G U31A U45A | 0.000216 ± 6.4e-05 |
| A14U G66A C70U | 0.00125 ± 0.00031 |
| C16U G38A G66A | < 1e-05 |
| C11U U47C G62A | < 1e-05 |
| A12G G59U G60U U65G | < 1e-05 |
| A15G C16U U31A A39C | 0.000142 ± 2.8e-05 |
| C16G G29C U31G | 0.00447 ± 0.00064 |
| C16U A33G U69A C70G | 7.7e-05 ± 3.3e-05 |

Variants of: B1
Experiment: self-cleavage kobs at 10000 uM GlcN6P; higher = faster cleavage; RNA array
Conditions: with glucosamine-6-phosphate
How it was run: as §1

| Variant | self-cleavage kobs at 10000 uM GlcN6P [s⁻¹] |
| --- | --- |
| A14U G32U C71A | 7.15e-05 ± 2.1e-05 |
| A15U U54C U65A | 0.000335 ± 3.8e-05 |
